Results: patent US20110033476A1 (published 2011)

How the values were obtained:
[1] = target: M2 protein of influenza A/Puerto Rico/8/34 (H1N1) (Influenza A virus A/Puerto Rico/8/34 (H1N1)) (UniProt P06821); test: ELISA on purified A/Puerto Rico/8/34 virus coated on wells (FIG. 14a)
[2] = target: M2 protein of influenza A/Puerto Rico/8/34 (H1N1) (Influenza A virus A/Puerto Rico/8/34 (H1N1)) (UniProt P06821); test: surface plasmon resonance, Fab binding to virus
[3] = target: T1, M2 protein of influenza A/Puerto Rico/8/34 (H1N1) (Influenza A virus A/Puerto Rico/8/34 …, UniProt P06821 1-97); test: ELISA on influenza virus, crude supernatant (FIG. 9)
T1 construct: whole, on cells
T1 sequence (P06821 whole entry): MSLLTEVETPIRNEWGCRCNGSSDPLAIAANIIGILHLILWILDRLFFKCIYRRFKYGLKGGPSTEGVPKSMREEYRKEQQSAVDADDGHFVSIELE

M2 protein of influenza A/Puerto Rico/8/34 (H1N1) (Influenza A virus A/Puerto Rico/8/34 (H1N1)), sequence (P06821 whole entry): as above

## TCN-031 (antibody)
[1]
  EC50: 0.1 µg/mL

## TCN-031 Fab
[2]
  Kd: 14 nM
  koff: 0.014 s⁻¹
  kon: 1e+06 M⁻¹ s⁻¹

## TCN-032 (antibody)
[1]
  EC50: 0.1 µg/mL

## TCN-032 Fab
[2]
  Kd: 3.2 nM
  koff: 0.0023 s⁻¹
  kon: 740000 M⁻¹ s⁻¹

B1: 23K12 (antibody, V domains shown)
VH: EVQLVESGGGLVQPGGSLRISCAASGFTVSSNYMSWVRQAPGKGLEWVSVIYSGGSTYYADSVKGRFSFSRDNSKNTVFLQMNSLRAEDTAVYYCARCLSRMRGYGLDVWGQGTTVTVS
VL: DIQMTQSPSSLSASVGDRVTITCRTSQSISSYLNWYQQKPGKAPKLLIYAASSLQSGVPSRFSGSGSGTDFTLTISGLQPEDFATYYCQQSYSMPAFGQGTKLEIK
[3]
  binding result: binds
